Positions count from the first letter of the chain named. Each block holds one binder with its values, some of them ahead of it.
Columns and labels:
[1] = target: T1, recombinant human IL-36R extracellular domain expressed with a C-terminal myc-myc-hexahistidine tag (human, UniProt Q9HB29 20-337); test: SPR (Biacore 4000), mAb captured on anti-human Fc, 25°C
T1 construct: also called hIL-36R-MMH; hIL-36R.mmH
Protocol: (§1) Equilibrium dissociation constants (KD values) for IL-36R binding to purified anti-IL-36R antibodies were determined using a real-time surface plasmon resonance biosensor using a Biacore 4000 instrument. The Biacore sensor surface was first derivatized by amine coupling with a monoclonal mouse anti-human Fc antibody (GE, # BR-1008-39) to capture anti-IL-36R monoclonal antibodies. All binding studies were performed in 0.01 M Hepes pH 7.4, 0.15 M NaCl, 3 mM EDTA, and 0.05% v/v Surfactant Tween-20 (HBS-ET running buffer) at 25° C. and 37° C. Different concentrations of IL-36R reagents, human IL-36R extracellular domain expressed with a C-terminal myc-myc-hexahistidine tag (hIL-36R-MMH), Macaca fascicularis IL-36R extracellular domain expressed with a C-terminal myc-myc-hexahistidine tag (mfIL-36R-MMH: mROR1 signal sequence (M1-A29). Macaca fascicularis IL36R_ecto domain (D20-A336).mycmycHis6), human IL-36R extracellular domain expressed with a C-terminal mouse IgG2a Fc tag (hIL-36R-mFc: mROR1 signal sequence (M1-A29)-human IL36R (D20-Y337)-mouse IgG2aFc (E98-K330)) or an in-line fusion protein of human IL-36R extracellular domain and IL1RAcP extracellular domain expressed with mouse IgG2a Fc tag (hIL-36R-Trap-mFc: mROR1 signal sequence (M1-A29)-human IL36R ecto domain (D20-Y337)-human IL1RacP ecto domain(S21-E359)-mouse IgG2aFc) in HBS-ET running buffer (ranging from 100 nM to 3.7 nM, 3-fold dilutions) were injected over the anti-IL-36R antibody captured surface for 4 minutes at a flow rate of 30 μL/minute and their dissociation in HBS-ET running buffer was monitored for 10 minutes. Kinetic association rate constant (kₐ) and dissociation rate constant (kd) were determined by fitting the real-time sensorgrams to a 1:1 binding model using Scrubber 2.0c curve fitting software. Binding dissociation equilibrium constants (KD) and dissociative half-lives (t_{1/2}) were calculated from the kinetic rate constants as: […]

[2] = target: T2, Macaca fascicularis IL-36R on cells (Macaca fascicularis, UniProt A0A2K5WSK9 20-558); test: cell-based or functional assay
T2 sequence: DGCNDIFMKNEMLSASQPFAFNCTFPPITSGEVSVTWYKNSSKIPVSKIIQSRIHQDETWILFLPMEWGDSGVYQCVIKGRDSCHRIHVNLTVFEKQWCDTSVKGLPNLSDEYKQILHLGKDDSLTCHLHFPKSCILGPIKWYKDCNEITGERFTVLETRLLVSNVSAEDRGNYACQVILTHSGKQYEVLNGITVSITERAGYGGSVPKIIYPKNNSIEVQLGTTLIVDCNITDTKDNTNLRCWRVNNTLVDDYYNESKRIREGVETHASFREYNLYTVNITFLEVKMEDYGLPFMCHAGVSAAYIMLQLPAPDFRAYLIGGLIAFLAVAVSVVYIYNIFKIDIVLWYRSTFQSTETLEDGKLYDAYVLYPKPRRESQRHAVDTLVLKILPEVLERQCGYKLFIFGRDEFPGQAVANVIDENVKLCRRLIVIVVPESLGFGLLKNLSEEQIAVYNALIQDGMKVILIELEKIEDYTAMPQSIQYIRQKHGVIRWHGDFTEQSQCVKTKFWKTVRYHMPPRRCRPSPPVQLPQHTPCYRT

[3] = target: T3, full-length human IL-36R on cells (human, UniProt Q9HB29 20-575); test: cell-based or functional assay
T3 sequence (looked up): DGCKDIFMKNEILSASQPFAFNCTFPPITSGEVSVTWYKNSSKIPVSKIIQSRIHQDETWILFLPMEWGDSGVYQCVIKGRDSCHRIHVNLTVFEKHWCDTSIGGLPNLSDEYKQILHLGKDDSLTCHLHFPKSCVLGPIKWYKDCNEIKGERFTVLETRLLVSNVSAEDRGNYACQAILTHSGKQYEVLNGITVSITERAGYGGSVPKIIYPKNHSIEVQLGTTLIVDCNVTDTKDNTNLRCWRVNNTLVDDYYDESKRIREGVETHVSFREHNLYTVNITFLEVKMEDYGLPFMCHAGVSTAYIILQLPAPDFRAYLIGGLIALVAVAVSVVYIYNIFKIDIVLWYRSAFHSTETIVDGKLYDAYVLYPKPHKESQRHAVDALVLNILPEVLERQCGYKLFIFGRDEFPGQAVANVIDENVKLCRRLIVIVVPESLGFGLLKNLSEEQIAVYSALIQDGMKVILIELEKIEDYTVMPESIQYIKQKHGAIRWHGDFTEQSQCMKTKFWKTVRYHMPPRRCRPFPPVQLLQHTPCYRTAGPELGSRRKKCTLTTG

[4] = target: T1, recombinant human IL-36R extracellular …; test: SPR (Biacore 4000), mAb captured on anti-human Fc, 37°C
Protocol: as §1

[5] = target: T3, full-length human IL-36R on cells; test: cell-based or functional assay; remark: listed apart in the source
[6] = target: T4, human IL-36R (IL1RL2) on primary human cells (human, UniProt Q9HB29 20-575); test: cell-based or functional assay
T4 sequence (looked up): T3 sequence (looked up)

T1 sequence (Q9HB29 other isoform, or with tags, fused parts or gaps limits assumed): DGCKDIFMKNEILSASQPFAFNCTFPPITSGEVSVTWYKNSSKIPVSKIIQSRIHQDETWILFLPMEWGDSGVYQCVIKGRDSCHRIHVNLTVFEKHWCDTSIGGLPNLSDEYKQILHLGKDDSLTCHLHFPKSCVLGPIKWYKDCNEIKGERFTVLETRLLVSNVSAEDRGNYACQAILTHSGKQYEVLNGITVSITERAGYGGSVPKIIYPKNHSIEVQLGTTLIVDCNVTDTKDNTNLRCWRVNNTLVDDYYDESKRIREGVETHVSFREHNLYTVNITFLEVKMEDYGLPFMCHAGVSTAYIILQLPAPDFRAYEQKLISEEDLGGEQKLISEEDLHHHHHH

100 nM hIL-36R-MMH Bound (RU) [1]: 89 RU
Kd [1]: 4.08 nM
koff [1]: 0.000495 s⁻¹
kon [1]: 121000 M⁻¹ s⁻¹
t½ [1]: 23 min
IC50 [M], NFκB-luciferase, 300 pM hIL-36γ [2]: 8.5e-11 M
IC50 [M], NFκB-luciferase, 500 pM hIL-36α [2]: 6e-11 M
IC50 [M], NFκB-luciferase, 600 pM hIL-36β [2]: 1.2e-10 M
Max Inhibition (%), NFκB-luciferase, 300 pM hIL-36γ [2]: 100%
Max Inhibition (%), NFκB-luciferase, 500 pM hIL-36α [2]: 100%
Max Inhibition (%), NFκB-luciferase, 600 pM hIL-36β [2]: 100%
IC50, IL-8 production of primary human cells stimulated with 10 nM IL-36α, β and γ [3]: 1 to 6 nM
100 nM hIL-36R-MMH Bound (RU) [4]: 113 RU
Kd [4]: 8.65 nM
koff [4]: 0.0013 s⁻¹
kon [4]: 150000 M⁻¹ s⁻¹
t½ [4]: 9 min
IC50 [M], NFκB-luciferase, 10 pM hIL-36γ [5]: 1.2e-10 M
IC50 [M], NFκB-luciferase, 15 pM hIL-36β [5]: 1.2e-10 M
IC50 [M], NFκB-luciferase, 20 pM hIL-36α [5]: 1e-10 M
Max Inhibition (%), NFκB-luciferase, 10 pM hIL-36γ [5]: 99%
Max Inhibition (%), NFκB-luciferase, 15 pM hIL-36β [5]: 101%
Max Inhibition (%), NFκB-luciferase, 20 pM hIL-36α [5]: 101%
B1: H4H14706P2 (antibody, human IgG4 S228P, kappa, V domains shown)
VH: EVQLVESGGGLVQPGRSLRLSCTASGFTFDDYAIHWVRQSPGKGLEWVSVISWNSDVIGYADSVKGRFTISRDNAKNSLYLQMNSLRAEDTALYYCAKGYNWNFFDYWGQGTLVTVSS
VL: EIVLTQSPATLSLSPGERATLSCRASQSVSSYLAWYQQKPGQAPRLLIYNAANRATDIPARFSGSGSGTDFTLTISSLEPEDFAVYYCQQRSNWPLTFGGGTKVEIKR

100 nM hIL-36R-MMH Bound (RU) [1]: 76 RU
Kd [1]: 6.82 nM
koff [1]: 0.000623 s⁻¹
kon [1]: 91400 M⁻¹ s⁻¹
t½ [1]: 19 min
IC50 [M], NFκB-luciferase, 300 pM hIL-36γ [2]: 1.2e-10 M
IC50 [M], NFκB-luciferase, 500 pM hIL-36α [2]: 8.9e-11 M
IC50 [M], NFκB-luciferase, 600 pM hIL-36β [2]: 1.2e-10 M
Max Inhibition (%), NFκB-luciferase, 300 pM hIL-36γ [2]: 100%
Max Inhibition (%), NFκB-luciferase, 500 pM hIL-36α [2]: 99%
Max Inhibition (%), NFκB-luciferase, 600 pM hIL-36β [2]: 100%
IC50, IL-8 production of primary human cells stimulated with 10 nM IL-36α, β and γ [3]: 1 to 6 nM
100 nM hIL-36R-MMH Bound (RU) [4]: 106 RU
Kd [4]: 13.6 nM
koff [4]: 0.00186 s⁻¹
kon [4]: 136000 M⁻¹ s⁻¹
t½ [4]: 6 min
IC50 [M], NFκB-luciferase, 10 pM hIL-36γ [5]: 1.6e-10 M
IC50 [M], NFκB-luciferase, 15 pM hIL-36β [5]: 2e-10 M
IC50 [M], NFκB-luciferase, 20 pM hIL-36α [5]: 1.3e-10 M
Max Inhibition (%), NFκB-luciferase, 10 pM hIL-36γ [5]: 99%
Max Inhibition (%), NFκB-luciferase, 15 pM hIL-36β [5]: 100%
Max Inhibition (%), NFκB-luciferase, 20 pM hIL-36α [5]: 101%
B2: H4H14708P2 (antibody, human IgG4 S228P, kappa, V domains shown)
VH: EVQLVESGGDLVQPGRSLRLSCAASGFTFDDYAMHWVRQAPGKGLEWVSVISWNSDVIAYSDSVKGRFTISRDNAKNSLYLQMNSLRTEDTALYYCTKGHKWSFFDYWGQGTLVTVSS
VL: B1 VL with V29I, Y49F, A51V

IC50 [M], IL-8 production, InMyoFib stimulated with 10 nM hIL-36α [6]: 4.89e-09 M
IC50 [M], IL-8 production, InMyoFib stimulated with 10 nM hIL-36β [6]: 3.62e-09 M
IC50 [M], IL-8 production, InMyoFib stimulated with 10 nM hIL-36γ [6]: 4.59e-09 M
IC50 [M], IL-8 production, NHEK stimulated with 10 nM hIL-36α [6]: 4.42e-09 M
IC50 [M], IL-8 production, NHEK stimulated with 10 nM hIL-36β [6]: 3.62e-09 M
IC50 [M], IL-8 production, NHEK stimulated with 10 nM hIL-36γ [6]: 2.11e-09 M
IC50 [M], IL-8 production, PB-derived CD14+ Monocytes stimulated with 10 nM hIL-36α [6]: 1.15e-09 M
IC50 [M], IL-8 production, PB-derived CD14+ Monocytes stimulated with 10 nM hIL-36β [6]: 1.74e-09 M
IC50 [M], IL-8 production, PB-derived CD14+ Monocytes stimulated with 10 nM hIL-36γ [6]: 1.58e-09 M
B3: H4H14706P2 (antibody, human IgG4 S228P, kappa, V domains shown)
VH: B1 VH
VL: B1 VL

IC50 [M], IL-8 production, InMyoFib stimulated with 10 nM hIL-36α [6]: 5.72e-09 M
IC50 [M], IL-8 production, InMyoFib stimulated with 10 nM hIL-36β [6]: 5.3e-09 M
IC50 [M], IL-8 production, InMyoFib stimulated with 10 nM hIL-36γ [6]: 6.4e-09 M
IC50 [M], IL-8 production, NHEK stimulated with 10 nM hIL-36α [6]: 5.06e-09 M
IC50 [M], IL-8 production, NHEK stimulated with 10 nM hIL-36β [6]: 5.79e-09 M
IC50 [M], IL-8 production, NHEK stimulated with 10 nM hIL-36γ [6]: 3.63e-09 M
IC50 [M], IL-8 production, PB-derived CD14+ Monocytes stimulated with 10 nM hIL-36α [6]: 2.38e-09 M
IC50 [M], IL-8 production, PB-derived CD14+ Monocytes stimulated with 10 nM hIL-36β [6]: 2.24e-09 M
IC50 [M], IL-8 production, PB-derived CD14+ Monocytes stimulated with 10 nM hIL-36γ [6]: 1.95e-09 M
B4: H4H14708P2 (antibody, human IgG4 S228P, kappa, V domains shown)
VH: B2 VH
VL: B1 VL with V29I, Y49F, A51V
